Test results: patent US20140087995A1 (published 2014)
Numbered stars: 1 amine (or outer) side, 2 acyl side, 3 side chain; on linkers, the order of the positions; unused ones are H or OH. Bridge positions count the residues as written; N and C are the ends. * marks the point of attachment. C20 diacid = O=C(O)CCCCCCCCCCCCCCCCCCC(=O)*; γGlu = O=C(O)[C@H](CCC(=O)[*:2])N[*:1]

T1: human calcitonin receptor (human, UniProt P30988 25-474)
T1 construct: whole, on cells; Membranes of BHK cells stably transfected with the human calcitonin receptor (Assay VII); also called hCTR; hCT
T1 sequence (looked up): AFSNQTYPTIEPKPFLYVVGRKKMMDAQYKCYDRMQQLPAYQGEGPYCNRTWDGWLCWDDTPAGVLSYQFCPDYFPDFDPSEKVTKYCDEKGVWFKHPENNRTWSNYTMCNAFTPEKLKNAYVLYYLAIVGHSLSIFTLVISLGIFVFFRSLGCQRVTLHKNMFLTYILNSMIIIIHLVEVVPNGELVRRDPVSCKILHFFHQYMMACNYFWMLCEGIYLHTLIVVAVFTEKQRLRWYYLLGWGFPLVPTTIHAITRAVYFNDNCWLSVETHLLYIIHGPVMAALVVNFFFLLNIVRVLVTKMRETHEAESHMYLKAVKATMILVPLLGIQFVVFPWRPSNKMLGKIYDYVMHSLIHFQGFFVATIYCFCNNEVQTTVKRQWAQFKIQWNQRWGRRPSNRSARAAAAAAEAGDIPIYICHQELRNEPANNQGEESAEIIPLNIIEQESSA

B1: N^-1-[(4S)-4-carboxy-4-(19-carboxynonadecanoylamino)butanoyl]-Gly[Arg1,Ala14,Arg17,Pro21,Pro27,His34]-h-amylin (peptide)
peptide: {C20 diacid-γGlu}-GRCNTATCATQRLAAFLRHSSPNFGAIPSSTNVGHNTY-NH2
modifications: disulfide 3-8
SMILES: CC[C@H](C)[C@H](NC(=O)[C@H](C)NC(=O)CNC(=O)[C@H](Cc1ccccc1)NC(=O)[C@H](CC(N)=O)NC(=O)[C@@H]1CCCN1C(=O)[C@H](CO)NC(=O)[C@H](CO)NC(=O)[C@H](Cc1c[nH]cn1)NC(=O)[C@H](CCCNC(=N)N)NC(=O)[C@H](CC(C)C)NC(=O)[C@H](Cc1ccccc1)NC(=O)[C@H](C)NC(=O)[C@H](C)NC(=O)[C@H](CC(C)C)NC(=O)[C@H](CCCNC(=N)N)NC(=O)[C@H](CCC(N)=O)NC(=O)[C@@H](NC(=O)[C@H](C)NC(=O)[C@@H]1CSSC[C@H](NC(=O)[C@H](CCCNC(=N)N)NC(=O)CNC(=O)CC[C@H](NC(=O)CCCCCCCCCCCCCCCCCCC(=O)O)C(=O)O)C(=O)N[C@@H](CC(N)=O)C(=O)N[C@@H]([C@@H](C)O)C(=O)N[C@@H](C)C(=O)N[C@@H]([C@@H](C)O)C(=O)N1)[C@@H](C)O)C(=O)N1CCC[C@H]1C(=O)N[C@@H](CO)C(=O)N[C@@H](CO)C(=O)N[C@H](C(=O)N[C@@H](CC(N)=O)C(=O)N[C@H](C(=O)NCC(=O)N[C@@H](Cc1c[nH]cn1)C(=O)N[C@@H](CC(N)=O)C(=O)N[C@H](C(=O)N[C@@H](Cc1ccc(O)cc1)C(N)=O)[C@@H](C)O)C(C)C)[C@@H](C)O
B2: N^-1-[(4S)-4-carboxy-4-(19-carboxynonadecanoylamino)butanoyl]-Gly[Arg1,His14,Arg17,Pro21,Pro27,Pro34]-h-amylin (peptide)
peptide: {C20 diacid-γGlu}-GRCNTATCATQRLAHFLRHSSPNFGAIPSSTNVGPNTY-NH2
modifications: disulfide 3-8
SMILES: CC[C@H](C)[C@H](NC(=O)[C@H](C)NC(=O)CNC(=O)[C@H](Cc1ccccc1)NC(=O)[C@H](CC(N)=O)NC(=O)[C@@H]1CCCN1C(=O)[C@H](CO)NC(=O)[C@H](CO)NC(=O)[C@H](Cc1c[nH]cn1)NC(=O)[C@H](CCCNC(=N)N)NC(=O)[C@H](CC(C)C)NC(=O)[C@H](Cc1ccccc1)NC(=O)[C@H](Cc1c[nH]cn1)NC(=O)[C@H](C)NC(=O)[C@H](CC(C)C)NC(=O)[C@H](CCCNC(=N)N)NC(=O)[C@H](CCC(N)=O)NC(=O)[C@@H](NC(=O)[C@H](C)NC(=O)[C@@H]1CSSC[C@H](NC(=O)[C@H](CCCNC(=N)N)NC(=O)CNC(=O)CC[C@H](NC(=O)CCCCCCCCCCCCCCCCCCC(=O)O)C(=O)O)C(=O)N[C@@H](CC(N)=O)C(=O)N[C@@H]([C@@H](C)O)C(=O)N[C@@H](C)C(=O)N[C@@H]([C@@H](C)O)C(=O)N1)[C@@H](C)O)C(=O)N1CCC[C@H]1C(=O)N[C@@H](CO)C(=O)N[C@@H](CO)C(=O)N[C@H](C(=O)N[C@@H](CC(N)=O)C(=O)N[C@H](C(=O)NCC(=O)N1CCC[C@H]1C(=O)N[C@@H](CC(N)=O)C(=O)N[C@H](C(=O)N[C@@H](Cc1ccc(O)cc1)C(N)=O)[C@@H](C)O)C(C)C)[C@@H](C)O

Target: T1, human calcitonin receptor
Assay: ratio of IC50 at hCTR over IC50 at hAmylin-R (SPA competition assays)
Experimental: The resulting pellet was resuspended, homogenized and centrifuged (20.000 rpm, 15 min) in a buffer containing 20 mM Na-HEPES and 0.1 mM EDTA (pH 7.4, buffer 2). The resulting pellet was resuspended in buffer 2 and protein concentration was measured (BCA protein Assay, Pierce). The homogenate was kept cold during the whole procedure. The membranes were kept at −80° C. until use. The assay was performed in a 384 well Optiplate (PerkinElmer) in a total volume of 40 ul. Membranes were mixed with SPA beads. Final concentration of membranes 35 ng/μL final and SPA beads was 0.05 mg/well. Test-compounds were dissolved in DMSO and further diluted in assay buffer (50 mM Hepes, pH 7.4, 1 mM CaCl2, 5 mM MgCl₂, 0.1% OA and 0.02% Tween20). […] The final mixture was incubated with shaking at 400 rpm for 120 min at 25° C. prior to centrifugation (1500 rpm, 10 min). Samples were analyzed on TopCounter™ (Packard). The IC₅₀ was calculated using (one site binding competition analysis) GraphPad Prism5 as a measure of receptor affinity.
Membranes were prepared in the following way; the cells were rinsed with PBS and incubated with Versene for approximately 5 min before harvesting. The cells were flushed with PBS and the cell-suspension was centrifuged for 5 min at 1000 rpm. Cells were homogenized (Ultrathurrax) in a buffer containing 20 mM Na-HEPES and 10 mM EDTA (pH 7.4) and centrifuged at 20.000 rpm for 15 min. The resulting pellet was resuspended, homogenized and centrifuged (20.000 rpm, 15 min) in a buffer containing 20 mM Na-HEPES and 0.1 mM EDTA (pH 7.4, buffer 2). The resulting pellet was resuspended in buffer 2 and protein concentration was measured (BCA protein Assay, Pierce). The homogenate was kept cold during the whole procedure. The membranes were kept at −80° C. until use. Assay was performed in a 384 well Optiplate (PerkinElmer) in a total volume of 40 ul. Membranes were mixed with SPA beads.

Row | Ratio hCT/hAmylin binding | Binder
1 | 68.6 | B1
2 | 26.5 | {C20 diacid-γGlu}-GRCNTATCATQRLAAFLRHSSPNFGAIPSSTNVGPNTY-NH2 (disulfide 3-8)
3 | 36.2 | B2

Target: T1, human calcitonin receptor
Assay: SPA competition against 125I-calcitonin, membranes of BHK cells with human calcitonin receptor (Assay VII)
Experimental: Membranes were prepared in the following way; the cells were rinsed with PBS and incubated with Versene for approximately 5 min before harvesting. The cells were flushed with PBS and the cell-suspension was centrifuged for 5 min at 1000 rpm. Cells were homogenized (Ultrathurrax) in a buffer containing 20 mM Na-HEPES and 10 mM EDTA (pH 7.4) and centrifuged at 20.000 rpm for 15 min. The resulting pellet was resuspended, homogenized and centrifuged (20.000 rpm, 15 min) in a buffer containing 20 mM Na-HEPES and 0.1 mM EDTA (pH 7.4, buffer 2). The resulting pellet was resuspended in buffer 2 and protein concentration was measured (BCA protein Assay, Pierce). The homogenate was kept cold during the whole procedure. The membranes were kept at −80° C. until use. Assay was performed in a 384 well Optiplate (PerkinElmer) in a total volume of 40 ul. Membranes were mixed with SPA beads. Final concentration of membranes 35 ng/μL final and Final concentration of SPA beads was 0.05 mg/well. Test-compounds were dissolved in DMSO and further diluted in assay buffer (50 mM Hepes, pH 7.4, 1 mM CaCl2, 5 mM MgCl₂, 0.1% OA and 0.02% Tween20). […] The final mixture was incubated for 120 min with shaking at 400 rpm at 25° C. prior to centrifugation (1500 rpm, 10 min). Samples were analyzed on TopCounter™ (Packard). The […] was calculated using (one site binding competition analysis) GraphPad Prism5 as a measure of receptor affinity.

Row | IC50 [nM] | Binder
4 | 29.2 | B1
5 | 3 | {C20 diacid-γGlu}-GRCNTATCATQRLAAFLRHSSPNFGAIPSSTNVGPNTY-NH2 (disulfide 3-8)
6 | 7.87 | B2
